Test results as given in patent US20240148887A1 (MERSANA THERAPEUTICS, published 2024).

T1: Human NaPi2b-derived peptide (QINVTVPSTANCTSPSLCWTDGIQNWTMKN) (human)
T1 construct: no modification is printed there; also called NaPi2b peptide
T1 peptide: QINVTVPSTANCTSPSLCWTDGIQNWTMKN

T2: NaPi2b on the cell surface of OVCAR3 human ovarian carcinoma cells (human, UniProt O95436 1-690)
T2 construct: also called sodium-dependent phosphate transport protein 2B; SLC34A2
T2 sequence: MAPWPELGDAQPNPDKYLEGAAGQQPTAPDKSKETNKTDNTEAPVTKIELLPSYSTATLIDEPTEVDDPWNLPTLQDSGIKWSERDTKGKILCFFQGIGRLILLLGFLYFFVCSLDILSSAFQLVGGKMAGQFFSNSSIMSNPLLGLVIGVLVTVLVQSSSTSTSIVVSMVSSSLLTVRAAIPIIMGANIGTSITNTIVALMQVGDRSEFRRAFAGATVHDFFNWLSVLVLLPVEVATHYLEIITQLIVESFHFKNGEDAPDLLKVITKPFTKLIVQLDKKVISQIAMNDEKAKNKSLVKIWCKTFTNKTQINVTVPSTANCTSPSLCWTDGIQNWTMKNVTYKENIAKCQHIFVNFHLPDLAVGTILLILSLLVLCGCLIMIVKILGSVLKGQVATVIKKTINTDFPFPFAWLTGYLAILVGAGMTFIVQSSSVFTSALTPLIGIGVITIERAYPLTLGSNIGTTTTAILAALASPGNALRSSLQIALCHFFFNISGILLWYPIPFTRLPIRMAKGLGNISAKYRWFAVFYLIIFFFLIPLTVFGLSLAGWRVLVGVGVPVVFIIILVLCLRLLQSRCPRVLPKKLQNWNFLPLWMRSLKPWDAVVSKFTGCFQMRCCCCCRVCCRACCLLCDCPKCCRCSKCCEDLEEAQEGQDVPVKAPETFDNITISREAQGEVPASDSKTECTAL

T3: Biotinylated NaPi2b-derived peptide (QINVTVPSTANCTSPSLCWTDGIQNWTMKN-biotin; Genscript) (C-terminal biotin)
T3 construct: also called NaPi2b-derived peptide antigen; immobilized NaPi2b-derived peptide
T3 peptide: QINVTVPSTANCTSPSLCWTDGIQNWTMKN

T4: FcγRIIA (H167) (human, UniProt P12318 36-218, limits assumed)
T4 construct: H167 is printed as the allelic form
T4 sequence (looked up): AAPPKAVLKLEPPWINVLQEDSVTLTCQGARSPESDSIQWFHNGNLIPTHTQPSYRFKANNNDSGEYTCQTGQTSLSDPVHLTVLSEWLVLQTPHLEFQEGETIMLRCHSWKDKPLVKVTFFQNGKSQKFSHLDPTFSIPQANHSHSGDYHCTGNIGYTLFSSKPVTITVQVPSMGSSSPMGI

T5: NaPi2b-derived peptide from cynolmogus monkey ([Cyc(12,18)]Ac-QMNVTVPSMANCTSPSLCWTDGIQIWTMKN-amide) (cynomolgus monkey, [Cyc(12,18)] cyclisation between residues 12 and 18; N-terminal acetyl (Ac-); C-terminal amide)
T5 peptide: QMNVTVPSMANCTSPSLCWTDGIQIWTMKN

T6: NaPi2b-derived peptide from rat ([Cyc(12,18)]Ac-EENVTVPSPDNCTSPSYCWTDGIQTWTIQN-amide) (rat, [Cyc(12,18)] cyclisation between residues 12 and 18; N-terminal acetyl (Ac-); C-terminal amide)
T6 peptide: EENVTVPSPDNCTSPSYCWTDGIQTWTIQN

T7: NaPi2b-derived peptide from mouse ([Cyc(12,18)]Ac-EMNVTVPSTDNCTSPSYCWTDGIQTWTIQN-amide) (mouse, [Cyc(12,18)] cyclisation between residues 12 and 18; N-terminal acetyl (Ac-); C-terminal amide)
T7 peptide: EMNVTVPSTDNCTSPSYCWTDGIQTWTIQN

T8: NaPi2b-derived peptide from human ([Cyc(12,18)]Ac-QINVTVPSTANCTSPSLCWTDGIQNWTMKN-amide) (human, [Cyc(12,18)] cyclisation between residues 12 and 18; N-terminal acetyl (Ac-); C-terminal amide)
T8 peptide: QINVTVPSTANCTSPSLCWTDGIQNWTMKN


Legend:
[1] = target: T1, Human NaPi2b-derived peptide …; test: ELISA, peptide coated on plate, anti-human IgG-HRP, four-parameter fit; mean of 2 experiments
Description: (§3) Human NaPi2b-derived peptide ([sequence]) was coated onto the surface of each well of a 96-well plate by incubation with the peptide (1 μg/mL in PBS), overnight at +4° C. The wells were then blocked by incubation with BSA (3% in PBS, containing 0.1% Tween 20 (PBST)) for 1 hour at room temperature. […] The unbound test article was removed by washing with PBST (3×). A secondary anti-human IgG conjugated to HRP (0.16 μg/mL in PBST) was incubated in each well for 1 hour. The unbound secondary antibody was removed by washing with PBST (3×). The HRP substrate, TMB, was added to each well and incubated until a blue color was visible. The reaction was quenched by the addition of sulfuric acid (0.2 N, 100 μL). […] The values were plotted using GraphPad Prism software. EC₅₀ values were determined by four-parameter curve fitting.

[2] = target: T2, NaPi2b on the cell surface of OVCAR3 …; test: flow cytometry on OVCAR3 cells, Alexa Fluor 647 anti-human IgG, median fluorescence, four-parameter fit; mean of 2 experiments
Description: The detached cells were triturated in media, and plated in 96 well U-bottom plates, at a density of 50,000 cells in medium (75 μL). […] The cells were washed with ice cold PBS (3×), and resuspended in ice cold PBS with 1% paraformaldehyde (100 L). The fluorescence per cell was determined by analyzing 5,000 cells for each treatment on the flow cytometer. The median fluorescence value for each treatment was plotted, and EC₅₀ values were calculated with Graphpad Prism software by four-parameter curve fitting.

[3] = target: T9, human FcRn protein (Immunitrack) (human, UniProt P55899 24-297; P61769 21-119, limits assumed); test: BLI (Octet QKe), test article on anti-human Fab-CH1 (FAB2G) sensors, FcRn in solution, pH 6.0, 1:1 global fit; mean of 2 experiments
T9 construct: also called FcRn receptor
Description: (§1) Dissociation was performed for 15 minutes. Binding constants were calculated with the global fit averages of the traces using a 1:1 model. […] Kinetic parameters were calculated using Octet software (ForteBio).
(§2) After association, sensors were washed for 5 minutes in FcRn binding buffer (Boston Bioproducts; diluted to 100 mM NaH₂PO₄, 0.05% Tween 20, pH 6.0). Association and dissociation steps were performed in FcRn binding buffer. Association measurements to FcRn protein (Immunitrack) was measured at 7 concentrations (from 1 μM to […], 2-fold serial dilutions) for 5 minutes. Dissociation was performed for 15 minutes. Binding constants were calculated with the global fit averages of the traces using a 1:1 model.

FcγRIIIA (V176) = FcγRIIIA (V176) (human, UniProt P08637 17-208, limits assumed); test: BLI (Octet QKe), test article on anti-human Fab-CH1 (FAB2G) sensors, receptor in solution, 25 C, 1:1 global fit; mean of 2 experiments
Description: as §1

[4] = target: T3, Biotinylated NaPi2b-derived peptide …; test: BLI (Octet), biotinylated peptide on streptavidin sensors, 25 C; mean of 4 experiments
Description: Biotinylated NaPi2b-derived peptide ([…]-biotin; Genscript) was immobilized to streptavidin octet sensors in kinetics buffer (10×). Sensors were then blocked in kinetics buffer (10×) with biocytin (50 μg/mL).

FcγRIIA (H167) [5] = target: T4, FcγRIIA (H167); test: BLI (Octet QKe), test article on anti-human Fab-CH1 (FAB2G) sensors, receptor in solution, 25 C, 1:1 global fit; mean of 3 experiments
Description: as §1

FcγRI [6] = target: T10, FcγRI (human, UniProt P12314 16-288, limits assumed); test: as above
T10 construct: also called Fc receptor FcγRI
Description: as §1

[7] = target: T5, NaPi2b-derived peptide from cynolmogus …; test: ELISA, cyclic peptide coated on plate; mean of 2 experiments
[8] = target: T6, NaPi2b-derived peptide from rat …; test: as above
[9] = target: T7, NaPi2b-derived peptide from mouse …; test: as above
[10] = target: T8, NaPi2b-derived peptide from human …; test: as above
[11] = target: T9, human FcRn protein (Immunitrack); test: BLI (Octet QKe), test article on anti-human Fab-CH1 (FAB2G) sensors, FcRn in solution, pH 6.0, 1:1 global fit; mean of 5 experiments
Description: as §1, §2

[12] = target: T1, Human NaPi2b-derived peptide …; test: ELISA, peptide coated on plate, anti-human IgG-HRP, four-parameter fit; mean of 3 experiments
Description: as §3

FcγRIIA (H167) [13] = target: T4, FcγRIIA (H167); test: BLI (Octet QKe), test article on anti-human Fab-CH1 (FAB2G) sensors, receptor in solution, 25 C, 1:1 global fit; mean of 2 experiments
Description: as §1

FcγRI [14] = target: T10, FcγRI; test: as above
Description: as §1

T10 sequence (P12314 16-288 limits assumed): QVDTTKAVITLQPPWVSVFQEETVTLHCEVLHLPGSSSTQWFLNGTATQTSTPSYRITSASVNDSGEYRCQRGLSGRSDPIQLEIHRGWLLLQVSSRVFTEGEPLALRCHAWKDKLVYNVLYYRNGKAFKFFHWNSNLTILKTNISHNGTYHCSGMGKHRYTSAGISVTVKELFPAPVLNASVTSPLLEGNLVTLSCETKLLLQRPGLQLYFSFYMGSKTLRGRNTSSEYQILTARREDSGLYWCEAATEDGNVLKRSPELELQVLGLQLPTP
Sequence of FcγRIIIA (V176) (P08637 17-208 F176V limits assumed): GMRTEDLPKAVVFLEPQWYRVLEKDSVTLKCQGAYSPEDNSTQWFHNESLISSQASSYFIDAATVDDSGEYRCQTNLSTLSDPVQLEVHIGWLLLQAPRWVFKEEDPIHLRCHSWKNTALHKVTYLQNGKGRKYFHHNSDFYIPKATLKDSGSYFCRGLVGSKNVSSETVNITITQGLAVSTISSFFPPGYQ
T9 sequence (P55899 24-297 limits assumed, chain 1 of 2): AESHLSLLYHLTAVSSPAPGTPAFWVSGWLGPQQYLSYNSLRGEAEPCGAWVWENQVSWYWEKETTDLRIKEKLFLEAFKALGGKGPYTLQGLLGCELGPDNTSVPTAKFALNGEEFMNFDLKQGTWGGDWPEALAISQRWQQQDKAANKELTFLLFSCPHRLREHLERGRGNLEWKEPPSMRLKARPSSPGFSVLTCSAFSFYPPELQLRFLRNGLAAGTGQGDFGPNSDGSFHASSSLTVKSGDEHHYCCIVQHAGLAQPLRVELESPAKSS
T9 sequence (P61769 21-119 limits assumed, chain 2 of 2): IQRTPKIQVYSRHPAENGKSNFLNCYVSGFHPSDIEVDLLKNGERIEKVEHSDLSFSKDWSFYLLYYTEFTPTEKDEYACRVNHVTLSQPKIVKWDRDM

Row | Binder | EC50 [2] [nM] | Kd (FcγRIIIA (V176)) [nM] | koff (FcγRIIIA (V176)) [s⁻¹] | kon (FcγRIIIA (V176)) [M⁻¹ s⁻¹] | Kd [4] [nM] | koff [4] [s⁻¹] | kon [4] [M⁻¹ s⁻¹] | Kd (FcγRI [6]) [nM] | koff (FcγRI [6]) [s⁻¹] | kon (FcγRI [6]) [M⁻¹ s⁻¹] | EC50 [7] [nM] | EC50 [8] [nM] | EC50 [9] [nM] | EC50 [10] [nM] | Kd [11] [nM] | koff [11] [s⁻¹] | kon [11] [M⁻¹ s⁻¹] | EC50 [12] [nM] | also measured
1 | XMT-1535 (anti-NaPi2b antibody) (antibody, human IgG1, kappa, Unconjugated IgG1 antibody) heavy: not shown light: DIQMTQSPSSLSASVGDRVTITCSASQDIGNFLNWYQQKPGKTVKVLIYYTSSLYSGVPSRFSGSGSGTDYTLTISSLQPEDFATYYCQQYSKLPLTFGQGTKLELKRRTVAAPSVFIFPPSDEQLKSGTASVVCLLNNFYPREAKVQWKVDNALQSGNSQESVTEQDSKDSTYSLSSTLTLSKADYEKHKVYACEVTHQGLSSPVTKSFNRGEC | 11.2 | 641 | 0.146 | 216000 | 0.0729 | 1.27e-05 | 170000 | 0.15 | 0.000192 | 1.28e+06 | 4.04 | 4.71 | 2.77 | 4.43 | – | – | – | – | EC50 [1]: 1.77 nM; Kd [3]: 2.76 nM; koff [3]: 0.000448 s⁻¹; kon [3]: 160000 M⁻¹ s⁻¹; Kd (FcγRIIA (H167) [5]): 1740 nM; koff (FcγRIIA (H167) [5]): 0.308 s⁻¹; kon (FcγRIIA (H167) [5]): 175000 M⁻¹ s⁻¹
2 | Conjugate 11 (XMT-1535 stochastic conjugate) (antibody, human IgG1, kappa, maleimido scaffold of Scaffold 6 (AF-HPA payload) on cysteines freed by TCEP reduction; stochastic, positions not given, DAR 6.5) heavy: not shown light: DIQMTQSPSSLSASVGDRVTITCSASQDIGNFLNWYQQKPGKTVKVLIYYTSSLYSGVPSRFSGSGSGTDYTLTISSLQPEDFATYYCQQYSKLPLTFGQGTKLELKRRTVAAPSVFIFPPSDEQLKSGTASVVCLLNNFYPREAKVQWKVDNALQSGNSQESVTEQDSKDSTYSLSSTLTLSKADYEKHKVYACEVTHQGLSSPVTKSFNRGEC | 6.56 | 270 | 0.0671 | 270000 | 0.0813 | 1.37e-05 | 165000 | – | – | – | 4.19 | 3.72 | 2.26 | 5 | 4.96 | 0.00055 | 126000 | 1.05 | Kd (FcγRIIA (H167) [13]): 1250 nM; koff (FcγRIIA (H167) [13]): 0.345 s⁻¹; kon (FcγRIIA (H167) [13]): 273000 M⁻¹ s⁻¹; Kd (FcγRI [14]): 0.166 nM; koff (FcγRI [14]): 0.000209 s⁻¹; kon (FcγRI [14]): 1.26e+06 M⁻¹ s⁻¹
3 | Conjugate 7 (XMT-1535 drug conjugate of Scaffold 6) (antibody, human IgG1, kappa, Scaffold 6 linker-drug (AF-HPA payload) attached by click chemistry to the azido-modified GlcNAc(Fuc)-GalNAc glycan on the asparagine at N297 (N300 of SEQ ID NO: 1 according to claim 40), The glycan was trimmed with Endo SH and extended with an azido sugar; the text prints 6.6) heavy: not shown light: DIQMTQSPSSLSASVGDRVTITCSASQDIGNFLNWYQQKPGKTVKVLIYYTSSLYSGVPSRFSGSGSGTDYTLTISSLQPEDFATYYCQQYSKLPLTFGQGTKLELKRRTVAAPSVFIFPPSDEQLKSGTASVVCLLNNFYPREAKVQWKVDNALQSGNSQESVTEQDSKDSTYSLSSTLTLSKADYEKHKVYACEVTHQGLSSPVTKSFNRGEC | 8.15 | – | – | – | 0.0828 | 1.81e-05 | 200000 | 3.05 | 0.00373 | 1.13e+06 | 3.83 | 2.48 | 1.79 | 3.7 | 5.88 | 0.000481 | 86100 | 1.44 | –
